The target of test [1] is Avi-PSMA, extracellular part of human PSMA comprising an N-terminal Avi-tag (human) (UniProt Q04609). The test can be described thus: native ELISA, biotinylated Avi-PSMA on streptavidin plate, mAb titrated. (In general: ELISA stands for enzyme-linked immunosorbent assay.)
In test [2] the target is human PSMA, full-length (endogenous on LNCaP and CW22Rv1 cells, or stably overexpressed in HEK293T/17 cells) (human) (UniProt Q04609). The test can be described thus: flow cytometry titration on live LNCaP cells. (In flow cytometry, cells or beads pass a laser one at a time.)
For test [3] the target is unchanged. The test can be described thus: flow cytometry titration on live LNCaP cells, Alexa Fluor 647 secondary antibody, normalised binding (%).
Test [4] shares this target. The test can be described thus: flow cytometry on live LNCaP cells, mAb 5 µg/mL, Alexa Fluor 647 secondary antibody; number printed beside the open (LNCaP) histogram.
For test [5], the target named is rhPSMA, extracellular part of human PSMA (residues 44-750) (human) (UniProt Q04609). The test can be described thus: SPR (BIAcore 2000), mAb captured by anti-mouse IgG, rhPSMA as analyte, Langmuir 1:1 fit.
The target of test [6] is Avi-PSMA, extracellular part of human PSMA comprising an N-terminal Avi-tag (human) (UniProt Q04609). The test can be described thus: direct ELISA on biotinylated Avi-PSMA held on streptavidin-coated plates, HRP secondary antibody, chemiluminescence, normalised binding (%).
Test [7] deals with human PSMA, full-length (endogenous on LNCaP and CW22Rv1 cells, or stably overexpressed in HEK293T/17 cells) (human) (UniProt Q04609). The test can be described thus: flow cytometry (summary sentence; differs from […] in Table 2).

What is called Kd is the equilibrium constant for the complex coming apart. Usually EC50 (read off the curve) stands for the midpoint of the concentration-response curve. Read a high EC50 (read off the curve) as a less potent agent. What is called koff is a measure of how fast the partners let go of each other. Low values mean a long-lived complex, high ones a short-lived complex. The term kon denotes a measure of how fast the partners come together. Turning to J591 mAb (antibody), the Kd in test [1] worked out at 1.12 nM; in test [2] it was 15.2 nM; in test [5] it was 1.21 nM. Further, the values for the concentration for a half-maximal effect (EC50 (read off the curve)) in test [3] and in test [6] were 10 nM and 0.9 nM, respectively. The substance further returned a median fluorescence (Alexa Fluor 647) in test [4] of 10600. The substance further displayed a koff in test [5] of 0.000123 s⁻¹. In test [5], this substance registered a kon of 102000 M⁻¹ s⁻¹.
On to 5D3 mAb (antibody), for which the equilibrium dissociation constant (Kd) in test [1] was determined as 0.14 nM; in test [7] it was 1.2 nM; in test [5], 1.08 nM. The median fluorescence (Alexa Fluor 647) in test [4] was 10700. In test [6], this substance showed an EC50 (read off the curve) of 0.1 to 0.2 nM.
